{"source": "patent US20220195014A1", "biological_target": "recombinant human NPR3 extracellular domain portion (amino acids Gly27-Ser482) fused to the Fc portion of mouse IgG2a (human; mouse) (UniProt P17342)", "sequence (P17342 27-482 limits assumed)": "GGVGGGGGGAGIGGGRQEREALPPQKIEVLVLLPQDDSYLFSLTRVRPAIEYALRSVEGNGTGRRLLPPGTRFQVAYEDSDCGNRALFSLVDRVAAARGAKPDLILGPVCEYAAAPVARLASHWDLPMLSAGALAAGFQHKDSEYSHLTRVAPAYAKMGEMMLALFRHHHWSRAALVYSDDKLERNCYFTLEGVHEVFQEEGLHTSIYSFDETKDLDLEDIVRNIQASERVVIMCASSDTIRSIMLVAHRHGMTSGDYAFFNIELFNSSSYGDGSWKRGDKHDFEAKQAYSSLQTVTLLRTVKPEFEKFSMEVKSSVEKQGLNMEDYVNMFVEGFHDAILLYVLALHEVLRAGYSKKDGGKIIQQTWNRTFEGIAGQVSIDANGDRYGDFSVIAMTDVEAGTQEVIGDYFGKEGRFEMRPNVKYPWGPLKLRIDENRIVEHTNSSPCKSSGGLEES", "test": "blocking ELISA, plate-coated hNPR3-mFc, competitor biotin-hANP, 1 µg/mL control antibody"}
{"substance": "non-binding human IgG1 isotype control antibody (blocking ELISA)", "values": [{"measurement": "percent blockade", "value": 32, "unit": "%"}]}
